# In US20150344570A1 (published 2015):
# T1: FcγRIIa R (human, UniProt P12318 34-217)
# T1 construct: extracellular domain; also called FcgRIIa R type; 2aR; not shown: His tag at the C terminus
# T1 sequence (looked up): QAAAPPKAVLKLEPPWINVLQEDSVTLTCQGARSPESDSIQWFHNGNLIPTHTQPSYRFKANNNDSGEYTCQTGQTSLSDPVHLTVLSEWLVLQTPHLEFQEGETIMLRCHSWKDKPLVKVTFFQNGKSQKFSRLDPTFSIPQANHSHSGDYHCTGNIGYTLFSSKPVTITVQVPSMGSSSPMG
# T2: FcγRIIb (human, UniProt P31994 43-217)
# T2 construct: extracellular domain; also called FcgRIIb; 2b; not shown: His tag at the C terminus
# T2 sequence (looked up): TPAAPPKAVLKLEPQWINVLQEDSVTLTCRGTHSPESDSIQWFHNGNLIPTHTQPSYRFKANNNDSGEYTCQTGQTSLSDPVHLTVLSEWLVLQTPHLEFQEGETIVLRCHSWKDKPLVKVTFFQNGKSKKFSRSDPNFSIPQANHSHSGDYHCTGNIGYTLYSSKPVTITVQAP
# T3: FcγRIIb extracellular domain with C-terminal His tag (human, UniProt P31994 43-217)
# T3 construct: extracellular domain; also called FcgRIIb; 2b; not shown: His tag at the C terminus
# T3 sequence (looked up): T2 sequence (looked up)
# B1: GpH7-A5/GpH7-B3 variant L328_11K/GpL16-k0 (antibody, human IgG1, kappa)
# heavy 1: not shown
# heavy 2: not shown
# light: DIVMTQSPLSLPVTPGEPASISCQASESLVHSNRNTYLHWYLQKPGQSPQLLIYKVSNRFSGVPDRFSGSGSGTDFTLKISRVEAEDVGVYYCSQNTHVPPTFGQGTKVEIERTVAAPSVFIFPPSDEQLKSGTASVVCLLNNFYPREAKVQWKVDNALQSGNSQESVTEQDSKDSTYSLSSTLTLSKADYEKHKVYACEVTHQGLSSPVTKSFNRGEC
# notes: Heterodimerized anti-glypican-3 IgG1; mutation in the GpH7-B3 chain only; also called He Ab
# B2: GpH7-A5/GpH7-B3 variant N325_20W/GpL16-k0 (antibody, human IgG1, kappa)
# heavy 1: not shown
# heavy 2: not shown
# light: B1 light
# notes: as for B1
# B3: GpH7-A5/GpH7-B3 variant S267_10E/GpL16-k0 (antibody, human IgG1, kappa)
# heavy 1: not shown
# heavy 2: not shown
# light: B1 light
# notes: as for B1
# B4: GpH7-A5/GpH7-B3 variant N325_07I/GpL16-k0 (antibody, human IgG1, kappa)
# heavy 1: not shown
# heavy 2: not shown
# light: B1 light
# notes: as for B1
# B5: GpH7-A5/GpH7-B3 variant V266_08L/GpL16-k0 (antibody, human IgG1, kappa)
# heavy 1: not shown
# heavy 2: not shown
# light: B1 light
# notes: as for B1
# B6: GpH7-A5/GpH7-B3 variant P238_08L/GpL16-k0 (antibody, human IgG1, kappa)
# heavy 1: not shown
# heavy 2: not shown
# light: B1 light
# notes: as for B1
# B7: GpH7-A5/GpH7-B3 variant P238_10E/GpL16-k0 (antibody, human IgG1, kappa)
# heavy 1: not shown
# heavy 2: not shown
# light: B1 light
# notes: as for B1
# B8: GpH7-A5/GpH7-B3 variant S267_03V/GpL16-k0 (antibody, human IgG1, kappa)
# heavy 1: not shown
# heavy 2: not shown
# light: B1 light
# notes: as for B1
# B9: GpH7-A5/GpH7-B3 variant P271_01G/GpL16-k0 (antibody, human IgG1, kappa)
# heavy 1: not shown
# heavy 2: not shown
# light: B1 light
# notes: as for B1
# B10: GpH7-A5/GpH7-B3 variant P238_04F/GpL16-k0 (antibody, human IgG1, kappa)
# heavy 1: not shown
# heavy 2: not shown
# light: B1 light
# notes: as for B1
# B11: GpH7-A5/GpH7-B3 variant S267_07I/GpL16-k0 (antibody, human IgG1, kappa)
# heavy 1: not shown
# heavy 2: not shown
# light: B1 light
# notes: as for B1
# B12: GpH7-A5/GpH7-B3 variant S267_09D/GpL16-k0 (antibody, human IgG1, kappa)
# heavy 1: not shown
# heavy 2: not shown
# light: B1 light
# notes: as for B1
# B13: GpH7-A5/GpH7-B3 variant V266_07I/GpL16-k0 (antibody, human IgG1, kappa)
# heavy 1: not shown
# heavy 2: not shown
# light: B1 light
# notes: as for B1
# B14: GpH7-A5/GpH7-B3 variant P238_15Y/GpL16-k0 (antibody, human IgG1, kappa)
# heavy 1: not shown
# heavy 2: not shown
# light: B1 light
# notes: as for B1
# B15: GpH7-A5/GpH7-B3 variant V266_05P/GpL16-k0 (antibody, human IgG1, kappa)
# heavy 1: not shown
# heavy 2: not shown
# light: B1 light
# notes: as for B1
# B16: GpH7-A5/GpH7-B3 variant N325_06M/GpL16-k0 (antibody, human IgG1, kappa)
# heavy 1: not shown
# heavy 2: not shown
# light: B1 light
# notes: as for B1
# B17: GpH7-A5/GpH7-B3 variant S239_10E/GpL16-k0 (antibody, human IgG1, kappa)
# heavy 1: not shown
# heavy 2: not shown
# light: B1 light
# notes: as for B1
# B18: GpH7-A5/GpH7-B3 variant S267_14T/GpL16-k0 (antibody, human IgG1, kappa)
# heavy 1: not shown
# heavy 2: not shown
# light: B1 light
# notes: as for B1
# B19: GpH7-A5/GpH7-B3 variant L328_12R/GpL16-k0 (antibody, human IgG1, kappa)
# heavy 1: not shown
# heavy 2: not shown
# light: B1 light
# notes: as for B1
# B20: GpH7-A5/GpH7-B3 variant S267_12R/GpL16-k0 (antibody, human IgG1, kappa)
# heavy 1: not shown
# heavy 2: not shown
# light: B1 light
# notes: as for B1
# B21: GpH7-A5/GpH7-B3 variant S267_04F/GpL16-k0 (antibody, human IgG1, kappa)
# heavy 1: not shown
# heavy 2: not shown
# light: B1 light
# notes: as for B1
# B22: GpH7-A5/GpH7-B3 variant S267_11K/GpL16-k0 (antibody, human IgG1, kappa)
# heavy 1: not shown
# heavy 2: not shown
# light: B1 light
# notes: as for B1
# B23: GpH7-A5/GpH7-B3 variant S267_02A/GpL16-k0 (antibody, human IgG1, kappa)
# heavy 1: not shown
# heavy 2: not shown
# light: B1 light
# notes: as for B1
# B24: GpH7-A5/GpH7-B3 variant V266_11K/GpL16-k0 (antibody, human IgG1, kappa)
# heavy 1: not shown
# heavy 2: not shown
# light: B1 light
# notes: as for B1
# B25: GpH7-A5/GpH7-B3 variant S267_19Q/GpL16-k0 (antibody, human IgG1, kappa)
# heavy 1: not shown
# heavy 2: not shown
# light: B1 light
# notes: as for B1
# B26: GpH7-A5/GpH7-B3 variant S239_09D/GpL16-k0 (antibody, human IgG1, kappa)
# heavy 1: not shown
# heavy 2: not shown
# light: B1 light
# notes: as for B1
# B27: GpH7-A5/GpH7-B3 variant S267_16H/GpL16-k0 (antibody, human IgG1, kappa)
# heavy 1: not shown
# heavy 2: not shown
# light: B1 light
# notes: as for B1
# B28: GpH7-A5/GpH7-B3 variant Y300_10E/GpL16-k0 (antibody, human IgG1, kappa)
# heavy 1: not shown
# heavy 2: not shown
# light: B1 light
# notes: as for B1
# B29: GpH7-A5/GpH7-B3 variant N325_08L/GpL16-k0 (antibody, human IgG1, kappa)
# heavy 1: not shown
# heavy 2: not shown
# light: B1 light
# notes: as for B1
# B30: GpH7-A5/GpH7-B3 variant P238_09D/GpL16-k0 (antibody, human IgG1, kappa)
# heavy 1: not shown
# heavy 2: not shown
# light: B1 light
# notes: as for B1
# B31: GpH7-A5/GpH7-B3 variant V266_04F/GpL16-k0 (antibody, human IgG1, kappa)
# heavy 1: not shown
# heavy 2: not shown
# light: B1 light
# notes: as for B1
# B32: GpH7-A5/GpH7-B3 variant S267_06M/GpL16-k0 (antibody, human IgG1, kappa)
# heavy 1: not shown
# heavy 2: not shown
# light: B1 light
# notes: as for B1
# B33: GpH7-A5/GpH7-B3 variant V266_06M/GpL16-k0 (antibody, human IgG1, kappa)
# heavy 1: not shown
# heavy 2: not shown
# light: B1 light
# notes: as for B1
# B34: GpH7-A5/GpH7-B3 variant N325_01G/GpL16-k0 (antibody, human IgG1, kappa)
# heavy 1: not shown
# heavy 2: not shown
# light: B1 light
# notes: Heterodimerized IgG1 antibody; alteration in the GpH7-B3 chain only; also called He Ab
# B35: GpH7-A5/GpH7-B3 variant A327_01G/GpL16-k0 (antibody, human IgG1, kappa)
# heavy 1: not shown
# heavy 2: not shown
# light: B1 light
# notes: as for B34
# Target: T1, FcγRIIa R
# Experiment: SPR, relative to GpH7-A5/GpH7-B3/GpL16-k0
row,He/Con_2aR [control = 100],Binder
1,2.5,B1
2,134,B2
3,175,B3
4,133,B4
5,142,B5
6,140,B6
7,151,B7
8,116,B8
9,144,B9
10,174,B10
11,111,B11
12,173,B12
13,120,B13
14,156,B14
15,-2.9,B15
16,152,B16
17,135,B17

row,He/Con_2aR [control = 100],Binder
1,81.9,B18
2,5,B19
3,3.6,B20
4,37.8,B21
5,3.6,B22
6,155,B23
7,-5.6,B24
8,135,B25
9,137,B26
10,50.6,B27
11,107,B28
12,144,B29
13,148,B30
14,44.4,B31
15,122,B32
16,150,B33

# Target: T2, FcγRIIb
# Experiment: SPR, relative to GpH7-A5/GpH7-B3/GpL16-k0
row,He/Con_2b [control = 100],Binder
1,7.5,B1
2,169,B2
3,379,B3
4,171,B4
5,236,B5
6,204,B6
7,232,B7
8,192,B8
9,193,B9
10,312,B10
11,192,B11
12,310,B12
13,152,B13
14,218,B14
15,0.4,B15
16,217,B16
17,181,B17

row,He/Con_2b [control = 100],Binder
1,104,B18
2,9.2,B19
3,11.3,B20
4,48,B21
5,12.2,B22
6,243,B23
7,1,B24
8,218,B25
9,206,B26
10,65.9,B27
11,134,B28
12,197,B29
13,221,B30
14,57.6,B31
15,210,B32
16,251,B33

# Target: T4, FcγRIIIa extracellular domain with C-terminal His tag (human, UniProt P08637 17-208)
# T4 construct: extracellular domain; also called FcgRIIIa; 3a; not shown: His tag at the C terminus
# T4 sequence (P08637 17-208): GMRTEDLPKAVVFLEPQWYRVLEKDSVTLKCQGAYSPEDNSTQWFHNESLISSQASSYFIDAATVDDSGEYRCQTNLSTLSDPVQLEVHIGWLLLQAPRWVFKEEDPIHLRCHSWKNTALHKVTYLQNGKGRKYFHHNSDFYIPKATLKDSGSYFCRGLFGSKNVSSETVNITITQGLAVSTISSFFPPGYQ
# Experiment: SPR (Biacore); He/Con_3a divided by He/Con_2b (FcγRIIb)
row,He_3a/2b (IIIa/IIb) [ratio],Binder
1,0.28,B34
2,0.63,B35

# Target: T1, FcγRIIa R
# Experiment: SPR; He/Con_2aR divided by He/Con_2b (FcγRIIa R over FcγRIIb)
row,He_2aR/2b [ratio],Binder
1,0.33,B1
2,0.79,B2
3,0.46,B3
4,0.78,B4
5,0.6,B5
6,0.68,B6
7,0.65,B7
8,0.61,B8
9,0.75,B9
10,0.56,B10
11,0.58,B11
12,0.56,B12
13,0.79,B13
14,0.72,B14
15,-8.33,B15
16,0.7,B16
17,0.75,B17

row,He_2aR/2b [ratio],Binder
1,0.78,B18
2,0.54,B19
3,0.32,B20
4,0.79,B21
5,0.3,B22
6,0.64,B23
7,-5.55,B24
8,0.62,B25
9,0.66,B26
10,0.77,B27
11,0.8,B28
12,0.73,B29
13,0.67,B30
14,0.77,B31
15,0.58,B32
16,0.6,B33

# Target: T3, FcγRIIb extracellular domain with …
# Experiment: SPR (Biacore), FcγR as analyte over captured antibody; GpH7-A5/GpH7-B3/GpL16-k0 = 100
# Procedure: (§1) The heterodimerized antibodies He Abs in which one of the H chains was introduced with an alteration were assayed for their binding activities to each activating FcγR and inhibitory FcγR according to the method described in Example 4. […] The activating FcγRs in FIGS. 26, 27, 28, and 29 are FcγRIa, FcγRIIa (R), FcγRIIa (H), and FcγRIIIa, respectively.
# (§2) Analysis of interaction between objective antibody and the FcγR was carried out using Biacore T100 (GE Healthcare). HBS-EP+ (GE Healthcare) was used as the running buffer, and the measurement temperature was set to 25° C. Chips produced by immobilizing the antigen peptide by the amine coupling method to a Series S Sencor Chip CM5 (GE Healthcare), or alternatively, chips produced by allowing preliminarily biotinylated antigen peptides to interact with and immobilize onto a Series S Sensor Chip SA (certified) (GE Healthcare) were used. Antibodies of interest were captured onto an antigen peptide-immobilized chip, and allowed to interact to each FcγR diluted with running buffer. To regenerate and repeatedly use the chip, the antibodies captured on the chip were washed off by reacting 10 mM glycine-HCl, pH 1.5.
row,He/Con_2b,Binder
1,101 % of control,B34
2,116 % of control,B35

# Target: T4, FcγRIIIa extracellular domain with …
# Experiment: as above
# Procedure: as §1, §2
row,He/Con_3a,Binder
1,28 % of control,B34
2,72.4 % of control,B35
